Measurements from article PMC7748003 (Plant Communications, 2019).

T1: GST-SMXL6 (Arabidopsis, UniProt Q9LML2 1-979)
T1 sequence (looked up): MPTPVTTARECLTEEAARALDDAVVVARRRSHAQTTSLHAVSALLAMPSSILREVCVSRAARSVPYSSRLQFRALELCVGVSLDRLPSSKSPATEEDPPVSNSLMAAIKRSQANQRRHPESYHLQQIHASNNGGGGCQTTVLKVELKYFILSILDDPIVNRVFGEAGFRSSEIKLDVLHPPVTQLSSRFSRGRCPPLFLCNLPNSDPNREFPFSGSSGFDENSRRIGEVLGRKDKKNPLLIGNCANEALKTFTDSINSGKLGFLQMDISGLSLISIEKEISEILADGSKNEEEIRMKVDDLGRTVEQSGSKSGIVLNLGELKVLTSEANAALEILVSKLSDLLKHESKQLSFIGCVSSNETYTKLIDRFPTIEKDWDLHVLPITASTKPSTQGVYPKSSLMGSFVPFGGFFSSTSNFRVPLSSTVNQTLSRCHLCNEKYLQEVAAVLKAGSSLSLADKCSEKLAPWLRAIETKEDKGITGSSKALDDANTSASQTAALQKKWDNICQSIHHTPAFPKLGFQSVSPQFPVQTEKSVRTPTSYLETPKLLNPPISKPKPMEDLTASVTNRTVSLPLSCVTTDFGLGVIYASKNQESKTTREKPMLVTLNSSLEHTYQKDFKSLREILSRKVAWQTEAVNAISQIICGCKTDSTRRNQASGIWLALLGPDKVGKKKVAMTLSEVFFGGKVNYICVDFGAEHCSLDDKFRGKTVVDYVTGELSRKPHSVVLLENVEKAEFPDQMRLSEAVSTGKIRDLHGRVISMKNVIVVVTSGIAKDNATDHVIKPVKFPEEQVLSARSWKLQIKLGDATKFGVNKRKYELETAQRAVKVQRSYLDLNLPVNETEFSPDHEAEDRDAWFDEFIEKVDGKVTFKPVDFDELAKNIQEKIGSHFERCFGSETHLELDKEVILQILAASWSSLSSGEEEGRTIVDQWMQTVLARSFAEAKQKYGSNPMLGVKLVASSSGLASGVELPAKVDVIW

T2: GST-SMXL7 (Arabidopsis, UniProt O80875 1-1002)
T2 sequence (looked up): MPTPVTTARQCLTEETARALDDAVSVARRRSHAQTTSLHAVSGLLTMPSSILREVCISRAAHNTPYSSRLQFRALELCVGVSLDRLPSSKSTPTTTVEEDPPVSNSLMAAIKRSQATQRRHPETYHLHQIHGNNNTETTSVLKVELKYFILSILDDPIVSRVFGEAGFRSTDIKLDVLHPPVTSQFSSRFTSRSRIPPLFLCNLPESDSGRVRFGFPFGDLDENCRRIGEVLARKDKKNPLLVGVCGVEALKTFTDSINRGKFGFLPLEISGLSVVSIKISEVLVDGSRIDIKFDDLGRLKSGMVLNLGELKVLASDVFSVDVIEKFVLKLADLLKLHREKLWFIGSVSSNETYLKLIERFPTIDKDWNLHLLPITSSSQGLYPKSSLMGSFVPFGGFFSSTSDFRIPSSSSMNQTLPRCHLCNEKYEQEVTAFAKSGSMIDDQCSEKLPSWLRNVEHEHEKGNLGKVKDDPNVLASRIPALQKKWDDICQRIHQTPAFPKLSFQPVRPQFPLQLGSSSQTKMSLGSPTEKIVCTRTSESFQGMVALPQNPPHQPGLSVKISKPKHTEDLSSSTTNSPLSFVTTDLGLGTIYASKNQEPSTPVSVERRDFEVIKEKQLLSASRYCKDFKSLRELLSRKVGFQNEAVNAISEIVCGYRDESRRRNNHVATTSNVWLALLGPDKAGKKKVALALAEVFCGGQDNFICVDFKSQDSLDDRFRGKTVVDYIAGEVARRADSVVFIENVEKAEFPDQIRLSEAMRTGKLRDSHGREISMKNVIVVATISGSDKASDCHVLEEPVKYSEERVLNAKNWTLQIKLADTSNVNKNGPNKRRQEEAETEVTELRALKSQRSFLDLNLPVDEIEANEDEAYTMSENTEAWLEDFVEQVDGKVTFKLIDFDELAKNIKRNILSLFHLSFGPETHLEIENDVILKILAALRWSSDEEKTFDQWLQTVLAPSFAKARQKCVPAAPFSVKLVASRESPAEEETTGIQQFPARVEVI

T3: GST-SMXL8 (Arabidopsis, UniProt F4IGZ2 1-910)
T3 sequence (looked up): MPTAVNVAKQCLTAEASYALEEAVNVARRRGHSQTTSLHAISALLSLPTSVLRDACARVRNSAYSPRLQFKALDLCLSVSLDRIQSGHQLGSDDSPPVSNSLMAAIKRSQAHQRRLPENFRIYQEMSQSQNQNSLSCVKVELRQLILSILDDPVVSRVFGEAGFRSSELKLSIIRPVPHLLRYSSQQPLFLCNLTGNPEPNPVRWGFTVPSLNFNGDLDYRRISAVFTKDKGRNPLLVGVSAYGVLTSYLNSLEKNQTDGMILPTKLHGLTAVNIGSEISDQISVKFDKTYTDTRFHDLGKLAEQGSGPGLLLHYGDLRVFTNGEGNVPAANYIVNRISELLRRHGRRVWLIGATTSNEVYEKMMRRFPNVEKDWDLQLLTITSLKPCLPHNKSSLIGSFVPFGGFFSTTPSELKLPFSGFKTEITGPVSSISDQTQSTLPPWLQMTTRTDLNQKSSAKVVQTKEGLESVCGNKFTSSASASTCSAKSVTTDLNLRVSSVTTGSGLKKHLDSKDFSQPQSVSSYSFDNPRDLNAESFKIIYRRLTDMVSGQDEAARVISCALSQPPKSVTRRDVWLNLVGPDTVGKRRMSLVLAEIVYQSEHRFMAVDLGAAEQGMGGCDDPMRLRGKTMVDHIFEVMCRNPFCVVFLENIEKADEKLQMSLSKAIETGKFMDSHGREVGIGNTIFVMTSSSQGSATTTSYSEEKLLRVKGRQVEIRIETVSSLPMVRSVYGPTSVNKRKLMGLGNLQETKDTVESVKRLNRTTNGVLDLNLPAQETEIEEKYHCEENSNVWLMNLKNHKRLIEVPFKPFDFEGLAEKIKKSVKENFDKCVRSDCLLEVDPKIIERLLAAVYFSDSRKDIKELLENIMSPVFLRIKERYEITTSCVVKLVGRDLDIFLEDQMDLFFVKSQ


What was measured:
BES1-MBP = BES1-MBP (Arabidopsis thaliana, UniProt Q9LN63 1-335); assay: EMSA
GST-SMXL6 = biological target: T1, GST-SMXL6; assay: pull-down
GST-SMXL7 = biological target: T2, GST-SMXL7; assay: pull-down
GST-SMXL8 = biological target: T3, GST-SMXL8; assay: pull-down

Row | binding result (GST-SMXL6) | binding result (GST-SMXL7) | binding result (GST-SMXL8) | Binder | binding result (BES1-MBP)
1 | – | – | – | BRC1 promoter probe b (fragment F4) (dsDNA) DNA 1: AACATAAACAAACACAAGGTCCTAATTATAGAAAAAAATC DNA 2: GATTTTTTTCTATAATTAGGACCTTGTGTTTGTTTATGTT | binds
2 | binds | binds | binds | MBP-BES1 (natural protein, Arabidopsis, UniProt Q9LN63 1-335, looked up) MTSDGATSTSAAAAAAAMATRRKPSWRERENNRRRERRRRAVAAKIYTGLRAQGNYNLPKHCDNNEVLKALCSEAGWVVEEDGTTYRKGHKPLPGDMAGSSSRATPYSSHNQSPLSSTFDSPILSYQVSPSSSSFPSPSRVGDPHNISTIFPFLRNGGIPSSLPPLRISNSAPVTPPVSSPTSRNPKPLPTWESFTKQSMSMAAKQSMTSLNYPFYAVSAPASPTHHRQFHAPATIPECDESDSSTVDSGHWISFQKFAQQQPFSASMVPTSPTFNLVKPAPQQLSPNTAAIQEIGQSSEFKFENSQVKPWEGERIHDVAMEDLELTLGNGKAHS | –
3 | – | – | – | BRC1 promoter probe c (fragment F5) (dsDNA) DNA 1: AAGAAGATTATAGTACAAGTGTCATTCTCAAAATTTTGTC DNA 2: GACAAAATTTTGAGAATGACACTTGTACTATAATCTTCTT | binds
4 | – | – | – | BRC1 promoter probe a (fragment F2) (dsDNA) DNA 1: GAACAAATGCAATATATCAATAGTTAGTGTACATATGAAG DNA 2: CTTCATATGTACACTAACTATTGATATATTGCATTTGTTC | binds
